Legend:
[1] = biological target: Prolink (PK)-tagged CXC chemokine receptor 4 (CXCR4) (UniProt P61073)
[2] = biological target: Prolink (PK)-tagged CXC chemokine receptor 4 (CXCR4) (UniProt P61073); remark: listed apart in the source

UniProt P61073, sequence (P61073 whole entry): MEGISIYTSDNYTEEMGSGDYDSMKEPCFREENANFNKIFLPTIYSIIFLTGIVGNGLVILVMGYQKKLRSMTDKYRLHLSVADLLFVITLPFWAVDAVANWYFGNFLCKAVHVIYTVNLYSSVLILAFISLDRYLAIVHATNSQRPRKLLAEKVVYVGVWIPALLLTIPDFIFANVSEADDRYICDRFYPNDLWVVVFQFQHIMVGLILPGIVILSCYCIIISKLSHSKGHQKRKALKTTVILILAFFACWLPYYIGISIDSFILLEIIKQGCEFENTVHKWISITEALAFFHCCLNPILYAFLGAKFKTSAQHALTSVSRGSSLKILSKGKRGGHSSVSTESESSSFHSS

For “CXC chemokine ligand 12 (CXCL12) (from UniProt P48061 22-93)”, the β-arrestin2 recruitment to PK-tagged CXCR4 (PathHunter, C2C12 cells), potency of CXCL12 (pEC50) [1] was 7.7 pEC50, the half-time of internalization of SNAP-tagged CXCR4 in HEK293A cells with 1 µM CXCL12 (constitutive: 22.1 min) [2] was 14.1 min and the real-time internalization of N-terminally SNAP-tagged CXCR4 in HEK293A cells, CXCL12 0.1 nM to 1 µM, potency of CXCL12 (pEC50) [2] was 7.7 pEC50.

— PMC8115334
